± gives the standard error. Fewer inactive variants are shown than the library holds.
B1: glmS ribozyme (parent)
chain: AUAAAAGCGCCAGAACUACAGAAAUGUAGUUGACGAGGAGGAGGUUUAUCGAAUUUUCGGCGGAUGCCUCCAAA

Tests used:
Details in all cases: with glucosamine-6-phosphate
glucosamine-6-phosphate [1] = variants of: B1; experiment: self-cleavage kobs at 160 uM GlcN6P; higher = faster cleavage; RNA array
Outline: (§1)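 Over ~14 h at 37 °C, tiles were imaged as glucosamine-6-phosphate (40 μM to 10 mM) in HEPES/KCl/Mg(OAc)2 buffer flowed across sequenced MiSeq chips. The chips carried barcoded ribozyme variants transcribed in situ by E. coli RNA polymerase and tracked with a hybridised Cy3 probe. After normalisation to baseline and to non-cleaving reference variants, one- or two-exponential decay fits of per-tile medians gave kobs. kcat and KM followed from weighted Michaelis–Menten fits across concentrations.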

glucosamine-6-phosphate [2] = variants of: B1; experiment: self-cleavage kobs at 640 uM GlcN6P; higher = faster cleavage; RNA array
Outline: as §1

glucosamine-6-phosphate [3] = variants of: B1; experiment: self-cleavage kobs at 2500 uM GlcN6P; higher = faster cleavage; RNA array
Outline: as §1

glucosamine-6-phosphate [4] = variants of: B1; experiment: self-cleavage kobs at 10000 uM GlcN6P; higher = faster cleavage; RNA array
Outline: as §1

Variant | self-cleavage kobs at 160 uM GlcN6P (glucosamine-6-phosphate [1]) [s⁻¹] | self-cleavage kobs at 640 uM GlcN6P (glucosamine-6-phosphate [2]) [s⁻¹] | self-cleavage kobs at 2500 uM GlcN6P (glucosamine-6-phosphate [3]) [s⁻¹] | self-cleavage kobs at 10000 uM GlcN6P (glucosamine-6-phosphate [4]) [s⁻¹]
C8G C16U G35U C50G C70U | 0.000117 ± 2.9e-05 | 0.000187 ± 5e-05 | 8.04e-05 ± 1.8e-05 | –
G40A C68G | < 1e-05 | < 1e-05 | < 1e-05 | < 1e-05
C10G G66C | < 1e-05 | < 1e-05 | – | < 1e-05
A6U U31G G41U A64C | < 1e-05 | < 1e-05 | < 1e-05 | –
G9U C61U | < 1e-05 | < 1e-05 | – | < 1e-05
C10U A33C G43U G44A C67G | < 1e-05 | < 1e-05 | < 1e-05 | –
A39C G43C | < 1e-05 | < 1e-05 | – | < 1e-05
G7C C8G U30C | < 1e-05 | < 1e-05 | – | –
C11A G38C A42C | < 1e-05 | – | < 1e-05 | –
A42U U47A C70G | < 1e-05 | < 1e-05 | – | –
G7A A12C U57A | < 1e-05 | < 1e-05 | < 1e-05 | –
C8G G51C C68G | < 1e-05 | < 1e-05 | – | –
A33C G41C G60A | < 1e-05 | < 1e-05 | < 1e-05 | –
C8A A42U U45G | < 1e-05 | < 1e-05 | < 1e-05 | –
A33G G37U C50G | 6.35e-05 ± 3.1e-05 | – | 0.000141 ± 4.1e-05 | –
G41U U55G A64G | – | 8.52e-05 ± 3.1e-05 | 0.000147 ± 4.4e-05 | –
A39G G62U | < 1e-05 | < 1e-05 | < 1e-05 | –
C50G A53U C68G | 0.000236 ± 6.7e-05 | 0.000668 ± 0.00018 | – | –
G29C U69A | 4.08e-05 ± 1.4e-05 | 8.01e-05 ± 1.7e-05 | 2.32e-05 ± 1e-05 | –
G9A C10A | < 1e-05 | < 1e-05 | < 1e-05 | < 1e-05
G37A U49A C67G | < 1e-05 | – | < 1e-05 | –
G9C C34A | < 1e-05 | < 1e-05 | < 1e-05 | –
C10A C70A | 6.28e-05 ± 1.3e-05 | 0.000194 ± 3.9e-05 | 6.82e-05 ± 1.9e-05 | –
U30A A53U C70U | 0.000167 ± 4.8e-05 | 0.000821 ± 0.0002 | – | –

Variant | self-cleavage kobs at 160 uM GlcN6P (glucosamine-6-phosphate [1]) [s⁻¹] | self-cleavage kobs at 640 uM GlcN6P (glucosamine-6-phosphate [2]) [s⁻¹] | self-cleavage kobs at 2500 uM GlcN6P (glucosamine-6-phosphate [3]) [s⁻¹] | self-cleavage kobs at 10000 uM GlcN6P (glucosamine-6-phosphate [4]) [s⁻¹]
G37U A42C C50U C68G | < 1e-05 | < 1e-05 | < 1e-05 | –
C34A C67G C68A | 6.53e-05 ± 1.9e-05 | 6.33e-05 ± 2e-05 | 0.000284 ± 8.7e-05 | –
U30C U54A C68A | 7.12e-05 ± 2.1e-05 | – | 5.33e-05 ± 2.5e-05 | –
G13C A42G G51C U56C C67A | < 1e-05 | – | < 1e-05 | –
C11G A33U G44U U49A U65G | < 1e-05 | < 1e-05 | < 1e-05 | –
A33C U69G | < 1e-05 | – | < 1e-05 | < 1e-05
A36C G38A G44C C67U C68G | < 1e-05 | < 1e-05 | < 1e-05 | –
C50G U54A G63A | 0.000158 ± 4.4e-05 | 0.000109 ± 2.9e-05 | 8.83e-05 ± 1.8e-05 | –
C8U G35A G43U | < 1e-05 | < 1e-05 | < 1e-05 | –
C50G A52G C67U | 0.000143 ± 5.1e-05 | 0.000875 ± 0.00027 | 7.71e-05 ± 2.8e-05 | –
G9A U46G | < 1e-05 | < 1e-05 | – | < 1e-05
G37A A39C U47C C71U | < 1e-05 | – | 3.22e-05 ± 1.4e-05 | –
G43C U49G | < 1e-05 | < 1e-05 | < 1e-05 | < 1e-05
C8U G40U A48U U65A | < 1e-05 | < 1e-05 | < 1e-05 | –
G38C G44A | < 1e-05 | < 1e-05 | – | < 1e-05
A39U G59U | < 1e-05 | < 1e-05 | – | 3.61e-05 ± 1.4e-05
U46A U65G | 0.000293 ± 6.7e-05 | 0.000975 ± 0.00016 | 0.00122 ± 0.00021 | 0.00301 ± 0.00058
A48C C61G | < 1e-05 | < 1e-05 | < 1e-05 | < 1e-05
G38C A48G G60U | < 1e-05 | < 1e-05 | < 1e-05 | –
A52G C67U C71G | 4.58e-05 ± 2.3e-05 | 7.65e-05 ± 1.9e-05 | 0.000162 ± 5.9e-05 | –
C8A U57C | < 1e-05 | < 1e-05 | < 1e-05 | –
C10A A33C G40C C70U | < 1e-05 | < 1e-05 | – | –
A15G U57A | – | 0.000105 ± 2e-05 | 0.000107 ± 2.8e-05 | 0.000392 ± 5.3e-05
A6G G41A A42U A64U | < 1e-05 | – | < 1e-05 | –

Variant | self-cleavage kobs at 160 uM GlcN6P (glucosamine-6-phosphate [1]) [s⁻¹] | self-cleavage kobs at 640 uM GlcN6P (glucosamine-6-phosphate [2]) [s⁻¹] | self-cleavage kobs at 2500 uM GlcN6P (glucosamine-6-phosphate [3]) [s⁻¹] | self-cleavage kobs at 10000 uM GlcN6P (glucosamine-6-phosphate [4]) [s⁻¹]
C34G A53U C68U | < 1e-05 | – | < 1e-05 | –
C16U C58A | 0.000528 ± 0.00025 | 0.000131 ± 2.7e-05 | 0.000305 ± 6.1e-05 | 0.00094 ± 0.00015
C10U U30C G43U G51U U55C U69C | < 1e-05 | < 1e-05 | < 1e-05 | < 1e-05
A42C U54G | < 1e-05 | – | – | –
C11G A12G G13C A14G | < 1e-05 | < 1e-05 | < 1e-05 | < 1e-05
G35C G62U C67G C70U | < 1e-05 | – | – | –
G41U C58U | < 1e-05 | < 1e-05 | – | –
G7C A48C C50U | < 1e-05 | – | – | < 1e-05
C10U G37C A39G G41C A48U G62U U65A | – | < 1e-05 | < 1e-05 | –
A12U A42U G44U C67G | 3.69e-05 ± 1.5e-05 | 0.000122 ± 3.2e-05 | 0.000326 ± 9.4e-05 | –
C10U C34G | < 1e-05 | < 1e-05 | < 1e-05 | < 1e-05
A39C U54G | 0.000221 ± 9.6e-05 | 0.00106 ± 0.00043 | – | 0.005 ± 0.0012
A33C A42U U46C U54G | < 1e-05 | – | < 1e-05 | –
A6G G7U C34G | < 1e-05 | < 1e-05 | < 1e-05 | –
C16A U31C U56G | 3.96e-05 ± 1.5e-05 | 9.16e-05 ± 1.9e-05 | 0.000266 ± 5.4e-05 | –
C34G G59C | < 1e-05 | < 1e-05 | – | < 1e-05
G37A G43C | < 1e-05 | – | < 1e-05 | –
A33U U69G | 5e-05 ± 2e-05 | 0.000237 ± 6.3e-05 | – | –
C8A G44C | < 1e-05 | < 1e-05 | < 1e-05 | –
C8A C16A U47C C58G | < 1e-05 | < 1e-05 | – | –
G38A G44A C50U | < 1e-05 | < 1e-05 | – | –
A15U A36C G41U C71G | < 1e-05 | < 1e-05 | – | –
G41A A53G | 0.000343 ± 7e-05 | 0.000842 ± 0.00015 | 0.00129 ± 0.00028 | 0.00427 ± 0.00084
C50U U56A | < 1e-05 | – | – | –

Variant | self-cleavage kobs at 160 uM GlcN6P (glucosamine-6-phosphate [1]) [s⁻¹] | self-cleavage kobs at 640 uM GlcN6P (glucosamine-6-phosphate [2]) [s⁻¹] | self-cleavage kobs at 2500 uM GlcN6P (glucosamine-6-phosphate [3]) [s⁻¹] | self-cleavage kobs at 10000 uM GlcN6P (glucosamine-6-phosphate [4]) [s⁻¹]
A12U A14U A15U | 0.000236 ± 5.9e-05 | 0.00051 ± 0.00013 | 0.00219 ± 0.00059 | –
G7A U49A | < 1e-05 | < 1e-05 | < 1e-05 | < 1e-05
C11U U31C A39U A52C A64G | < 1e-05 | – | < 1e-05 | –
A42G U46G C67U | 0.000274 ± 8.3e-05 | – | 0.00148 ± 0.00058 | –
C8A G40C G41C G63U | < 1e-05 | < 1e-05 | – | –
C34A G63A | < 1e-05 | < 1e-05 | < 1e-05 | –
G38U G40C G41C | < 1e-05 | < 1e-05 | < 1e-05 | –
U30A G35C C50G C68A C71U | 8.36e-05 ± 2.8e-05 | 0.00197 ± 0.00057 | 0.000671 ± 0.00025 | –
G29A G38U C50G | – | 0.00061 ± 0.00027 | – | –
C11A A39U C61U C70G | < 1e-05 | < 1e-05 | < 1e-05 | –
A6G A52G G63U | < 1e-05 | < 1e-05 | < 1e-05 | –
G35A U46G | < 1e-05 | < 1e-05 | < 1e-05 | –
A14U U31A G32U C67U | – | 5.86e-05 ± 2.4e-05 | 0.000276 ± 7.5e-05 | –
G7U A33C C67A C68U | < 1e-05 | – | < 1e-05 | –
A6U U45C | < 1e-05 | < 1e-05 | – | –
G13C G43C C70A | < 1e-05 | – | – | –
C16U G51U A64G C68A C71A | – | < 1e-05 | < 1e-05 | –
G32C G44C C58U G59A U65A C71U | < 1e-05 | – | – | –
A12U C61A U69G | < 1e-05 | – | – | –
C10G A48C G51U U65C | < 1e-05 | < 1e-05 | < 1e-05 | –
C11U A39U U49G | < 1e-05 | < 1e-05 | < 1e-05 | –
G37C U47A | < 1e-05 | – | – | 4.38e-05 ± 1.1e-05
C10G C34G G41U U45A | – | < 1e-05 | < 1e-05 | –
C10A A14C G37C G44U C61U | < 1e-05 | – | – | –

From the supplement of paper PMC7125110
